# Results: patent US20240317847A1 (Bayer, published 2024)
# Numbering of substitutions follows the chain as printed.
# T1: human IL-11 (Invigate, e.g., lot #C121021-19) (human, UniProt P20809 22-199)
# T1 construct: Bought protein; also called hIL-11; hIL11
# T1 sequence: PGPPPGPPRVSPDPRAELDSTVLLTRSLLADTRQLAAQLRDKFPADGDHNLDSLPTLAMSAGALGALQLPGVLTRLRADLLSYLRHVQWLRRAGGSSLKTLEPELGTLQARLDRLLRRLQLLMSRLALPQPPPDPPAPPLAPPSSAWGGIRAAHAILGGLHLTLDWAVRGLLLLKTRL
# T2: murine IL-11 (Invigate, e.g., lot #C210819-09) (mouse, UniProt P47873 22-199)
# T2 sequence: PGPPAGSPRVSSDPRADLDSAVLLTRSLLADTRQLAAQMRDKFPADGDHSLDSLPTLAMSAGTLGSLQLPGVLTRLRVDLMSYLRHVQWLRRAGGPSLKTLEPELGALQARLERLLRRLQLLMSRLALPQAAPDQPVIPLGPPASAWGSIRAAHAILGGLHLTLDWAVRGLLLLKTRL
# T3: murine IL-11 (mouse, UniProt P47873 22-199)
# T3 construct: Invigate recombinant protein; biotinylated when immobilized in the Di-complex ELISA; also called mIL11; mIL-11
# T3 sequence: T2 sequence
# T4: human IL-11 (human, UniProt P20809 22-199)
# T4 construct: Invigate recombinant protein; biotinylated when immobilized in the Di-complex ELISA; also called hIL11; hIL-11
# T4 sequence: T1 sequence
# B1: TPP-18087 (antibody, mouse IgG1, V domains shown)
# VH: EVQLLESGGGLVQPGGSLRLSCAASGFTFSHYDMNWLRQAPGKGLEWVGVISYDGSNKFYADFVKGRFTISRDNSKNTLYLQMNSLRAEDTAVYYCARTPGSHFDYWGQGTLVTVSS
# VL: QSVLTQPPSASGTPGQRVTISCSGSSSNIGNNAVNWYQQLPGTAPKLLIYYDDLLPSGVPDRFSGSKSGTSASLAISGLRSEDEADYYCSAWDDSLNGVVFGGGTKLTVLG
# notes: mIgG1, Lambda
# B2: TPP-19528 (antibody, mouse IgG1, V domains shown)
# VH: EVQLLESGGGLVQPGGSLRLSCAASGFTFSIYAMSWVRQAPGKGLEWVSSISDTGDRTYYADSVKGRFTISRDNSKNTLYLQMNSLRAEDTAVYYCARSNWGSLDYWGQGTLVTVSS
# VL: B1 VL with N31S, A33Y, N35Y, S90A, N97S, V99R
# notes: mIgG1, Lambda
# B3: TPP-18087 (antibody, mouse IgG1, V domains shown)
# VH: B1 VH
# VL: B1 VL
# notes: mIgG1, Lambda
# B4: TPP-18068 (antibody, mouse IgG1)
# heavy: EVQLLESGGGLVQPGGSLRLSCAASGFTFSSYGMHWVRQAPGKGLEWVSVISYDGSYKYYADSVKGRFTISRDNSKNTLYLQMNSLRAEDTAVYYCAAGVPDYWGQGTLVTVSSAKTTPPSVYPLAPGSAAQTNSMVTLGCLVKGYFPEPVTVTWNSGSLSSGVHTFPAVLQSDLYTLSSSVTVPSSTWPSETVTCNVAHPASSTKVDKKIVPRDCGCKPCICTVPEVSSVFIFPPKPKDVLTITLTPKVTCVVVDISKDDPEVQFSWFVDDVEVHTAQTQPREEQFNSTFRSVSELPIMHQDWLNGKEFKCRVNSAAFPAPIEKTISKTKGRPKAPQVYTIPPPKEQMAKDKVSLTCMITDFFPEDITVEWQWNGQPAENYKNTQPIMDTDGSYFVYSKLNVQKSNWEAGNTFTCSVLHEGLHNHHTEKSLSHSPGK
# light: QSVLTQPPSASGTPGQRVTISCTGSSSNIGAGYDVHWYQQLPGTAPKLLIYSNNERPSGVPDRFSGSKSGTSASLAISGLRSEDEADYYCAAWDDSLNGPVFGGGTKLTVLGQPKSSPSVTLFPPSSEELETNKATLVCTITDFYPGVVTVDWKVDGTPVTQGMETTQPSKQSNNKYMASSYLTLTARAWERHSSYSCQVTHEGHTVEKSLSRADCS
# notes: mIgG1, Lambda
# B5: TPP-29528 (antibody, mouse IgG1)
# heavy: B4 heavy with S49A
# light: B4 light with T23S, A31S, G32D, N54E, A91S, D95S, N98S
# notes: mIgG1, Lambda
# B6: TPP-29519 (antibody, mouse IgG1)
# heavy: QVQLVESGGGVVQPGRSLRLSCAASGFTFSHYDMHWVRQAPGKGLEWVAVISYHGSVKFYADSVKGRFTISRDNSKNTLYLQMNSLRAEDTAVYYCARTPGFHFDYWGQGTLVTVSSAKTTPPSVYPLAPGSAAQTNSMVTLGCLVKGYFPEPVTVTWNSGSLSSGVHTFPAVLQSDLYTLSSSVTVPSSTWPSETVTCNVAHPASSTKVDKKIVPRDCGCKPCICTVPEVSSVFIFPPKPKDVLTITLTPKVTCVVVDISKDDPEVQFSWFVDDVEVHTAQTQPREEQFNSTFRSVSELPIMHQDWLNGKEFKCRVNSAAFPAPIEKTISKTKGRPKAPQVYTIPPPKEQMAKDKVSLTCMITDFFPEDITVEWQWNGQPAENYKNTQPIMDTDGSYFVYSKLNVQKSNWEAGNTFTCSVLHEGLHNHHTEKSLSHSPGK
# light: QSVLTQPPSASGTPGQRVTISCSGSSSNIGSNYVSWYQQLPGTAPKLLIYYDDLRPSGVPDRFSGSKSGTSASLAISGLRSEDEADYYCSAWDDSLSGVVFGGGTKLTVLGQPKSSPSVTLFPPSSEELETNKATLVCTITDFYPGVVTVDWKVDGTPVTQGMETTQPSKQSNNKYMASSYLTLTARAWERHSSYSCQVTHEGHTVEKSLSRADCS
# notes: mIgG1, Lambda
# What was measured:
# [1] = target: T1, human IL-11 (Invigate, e.g., lot …); assay: Di-complex ELISA: biotinylated human IL-11 on streptavidin plate, antibody titrated against 2 nM canine IL11RA-human-Fc (competitor)
# Protocol: (§1) In the Di-complex ELISA format anti IL-11 antibodies are tested for the ability to interfere with the formation of complexes consisting of immobilized murine IL-11 (Invigate, e.g., lot #C210819-09) or human IL-11 (Invigate, e.g., lot #C121021-19), and murine IL11RA-Fc fusion proteins or canine IL11RA-human-Fc fusion protein (FIG. 17a, b).
# (§2) The assay is performed using streptavidin coated microtiter plates (Greiner bio-one, #781997). In a first step, 10 nM biotinylated mouse IL-11 (Invigate, Germany, e.g., lot #C210819-09) or human IL-11 (Invigate, Germany, e.g., lot #C121021-19) is coated in 25 μl PBS on the plate at 4° C. overnight. Next day, the plate is washed three times with 50 μl PBST and then blocked with 50 μl SmartBlock (Candor, #113125) for one hour at room temperature (RT). After additional three washes with PBST, 25 μl of a mixture of the murine anti IL-11 antibody and recombinant canine IL11RA-Fc fusion protein (Sino Biological, #70078-D02H) in PBS-T, 10% Smartblock are added simultaneously to the plate and incubated for one hour at RT. […] After three additional washes with PBS-T, 25 μl anti-human-POD (Sigma, #A0170) in PBS-T, 10% Smartblock is added and incubated for 1 hour at RT. After a final three washes with PBS-T, 25 μl AmplexRed (Fisher Scientific, A12222), 1/1000 in PBS, 0,003% H₂O₂, is added as substrate and incubated for 15 min at RT in the dark. Then, the fluorescence is measured with a plate reader at 535/595 nm. Signals from dose responses were used to calculate IC50 values (GraphPad Prism). Efficacy was calculated as [(signal measured at lowest antibody concentration−signal measured at the highest antibody concentration)×100] divided by (signal measured at lowest antibody concentration−signal measured in the absence of IL11Ra).
# [2] = target: T1, human IL-11 (Invigate, e.g., lot …); assay: cell-based or functional assay
# [3] = target: T2, murine IL-11 (Invigate, e.g., lot …); assay: cell-based or functional assay
# [4] = target: T2, murine IL-11 (Invigate, e.g., lot …); assay: Di-complex ELISA: biotinylated murine IL-11 on streptavidin plate, antibody titrated against 2 nM canine IL11RA-human-Fc (competitor)
# Protocol: as §1, §2
# [5] = target: T3, murine IL-11; assay: Tri-complex ELISA, mIL-11 + mIL-11Ra-Fc + mgp130-Fc, inhibition of complex formation
# [6] = target: T4, human IL-11; assay: Tri-complex ELISA, hIL-11 + mIL-11Ra-Fc + hgp130-Fc, inhibition of complex formation
Binder,Efficacy (%) [1] [%],"Efficacy (%), Stat3 reporter gene assay, human IL11RA, 0.78 nM hIL-11 [2] [%]","IC50 [M], Stat3 reporter gene assay, HEK 293F transfected with human IL11RA, 0.78 nM hIL-11 [2] [M]","Efficacy (%), Stat3 reporter gene assay, mouse Il11ra, 3.13 nM mIL-11 [3] [%]","IC50 [M], Stat3 reporter gene assay, HEK 293F transfected with mouse Il11ra, 3.13 nM mIL-11 [3] [M]",Efficacy (%) [4] [%],IC50 [5] [nM],Efficacy (%) [5] [%],Efficacy (%) [6] [%],IC50 [6] [nM],further results
B1,10.7,51.5,1.07e-07,49,3.31e-07,13.4,,,,,
B2,57,65.6,1.5e-08,80.7,9.6e-09,79,,,,,IC50 [1]: 3 nM; IC50 [4]: 24 nM
B3,,,,,,,33,,,,
B4,,,,,,,3.9,84.9,,,
B5,,,,,,,0.6,94.7,94.7,1,
B6,,,,,,,0.14,81.3,81.3,2.4,
